Experiments:
COc1cccc(CO)c1 = experiment: purified protein; conditions: apparent, FAD-reconstituted enzyme, 0.1 M sodium phosphate pH 6.0
[1] = target: T1, rAOx (recombinant alcohol oxidase, A. terreus MTCC6324) (Aspergillus terreus, UniProt I7FDJ2); experiment: FAD fluorescence quenching (ex […] nm, em […] nm) after reconstitution of apoenzyme; assay type: binding; conditions: refolding of apo-rAOx with 0.08 mM FAD, pH 9.0, 16 °C, ~80 h
T1 construct: gene AOx; full-length ORF 2001 bp, 666 residues; pET28a(+), N- and C-terminal His6 kept; ~74-76 kDa; highly aggregated (~1000 nm)
T1 sequence (I7FDJ2 1-666): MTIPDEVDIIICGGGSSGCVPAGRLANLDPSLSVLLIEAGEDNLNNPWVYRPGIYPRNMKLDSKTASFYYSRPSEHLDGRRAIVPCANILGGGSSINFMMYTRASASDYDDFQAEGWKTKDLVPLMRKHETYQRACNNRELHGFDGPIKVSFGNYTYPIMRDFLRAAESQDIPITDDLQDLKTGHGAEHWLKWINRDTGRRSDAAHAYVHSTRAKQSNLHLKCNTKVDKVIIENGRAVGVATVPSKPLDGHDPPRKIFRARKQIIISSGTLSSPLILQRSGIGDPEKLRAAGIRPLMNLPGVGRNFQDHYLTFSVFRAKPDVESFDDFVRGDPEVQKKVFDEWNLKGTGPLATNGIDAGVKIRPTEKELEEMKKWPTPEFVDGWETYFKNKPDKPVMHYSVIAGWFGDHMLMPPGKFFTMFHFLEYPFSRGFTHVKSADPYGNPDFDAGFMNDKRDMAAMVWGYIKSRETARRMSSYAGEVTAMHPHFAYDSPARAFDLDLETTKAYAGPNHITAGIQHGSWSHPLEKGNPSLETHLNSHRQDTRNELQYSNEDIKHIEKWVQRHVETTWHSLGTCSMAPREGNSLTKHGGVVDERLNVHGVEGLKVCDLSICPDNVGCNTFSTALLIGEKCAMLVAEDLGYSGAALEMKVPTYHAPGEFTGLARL

purified protein [2] = substrate: COc1ccc(CO)cc1OC; experiment: purified protein; assay type: biochemical, Aspergillus terreus; conditions: apparent, FAD-reconstituted enzyme, 0.1 M sodium phosphate pH 6.0
purified protein [3] = substrate: OCc1ccccc1; experiment: purified protein; assay type: biochemical, Aspergillus terreus; conditions: apparent, FAD-reconstituted enzyme, 0.1 M sodium phosphate pH 6.0

Which Km (COc1cccc(CO)c1) does the source give for “rAOx (recombinant alcohol oxidase, A. terreus MTCC6324) (Aspergillus terreus)” here?
Its Km is 2.88 mM.

And the kcat (COc1cccc(CO)c1)?
Its kcat is 106 s⁻¹.

What about the kcat/Km (COc1cccc(CO)c1) of the same molecule?
The kcat/Km was 36700 M⁻¹ s⁻¹.

Which “FAD fluorescence quenching (ex 443 nm, em 527 nm) after reconstitution of apoenz” value [1] does the source give for Cc1cc2nc3c(=O)[nH]c(=O)nc-3n(C[C@H](O)[C@H](O)[C@H](O)COP(=O)(O)OP(=O)(O)OC[C@H]3O[C@@H](n4cnc5c(N)ncnc54)[C@H](O)[C@@H]3O)c2cc1C [FAD] here?
The value was “lower fluorescence intensity of the holoenzyme relative to that of free FAD inferred efficient incorporation”.

B1: rAOx (recombinant alcohol oxidase, A. terreus MTCC6324) (Aspergillus terreus) (protein)
chain: T1 sequence (I7FDJ2 1-666)
notes: full-length ORF 2001 bp, 666 residues; pET28a(+), N- and C-terminal His6 kept; ~74-76 kDa; highly aggregated (~1000 nm)
How did the Km (purified protein [2]) turn out when B1 was run?
The Km was 4.91 mM.

And the kcat (purified protein [2])?
Its kcat is 115 s⁻¹.

And the kcat/Km (purified protein [2])?
The kcat/Km was 23500 M⁻¹ s⁻¹.

What about the Km (purified protein [3]) of the same molecule?
The Km was 10.80 mM.

And the kcat (purified protein [3])?
The kcat was 2.16 s⁻¹.

And the kcat/Km (purified protein [3])?
Its kcat/Km is 200 M⁻¹ s⁻¹.
